From US20080182795A1 (BOSTON MEDICAL CENTER, published 2008) come the findings set out here.

Where no end group is shown, it is not given here.

The target in assay [1] is T1, GLP-1 receptor of βTC3 cells (mouse, UniProt O35659 22-463).
T1 construct: whole, on cells; also called βTC3 cell receptor; GLP-1 receptors
T1 sequence (looked up): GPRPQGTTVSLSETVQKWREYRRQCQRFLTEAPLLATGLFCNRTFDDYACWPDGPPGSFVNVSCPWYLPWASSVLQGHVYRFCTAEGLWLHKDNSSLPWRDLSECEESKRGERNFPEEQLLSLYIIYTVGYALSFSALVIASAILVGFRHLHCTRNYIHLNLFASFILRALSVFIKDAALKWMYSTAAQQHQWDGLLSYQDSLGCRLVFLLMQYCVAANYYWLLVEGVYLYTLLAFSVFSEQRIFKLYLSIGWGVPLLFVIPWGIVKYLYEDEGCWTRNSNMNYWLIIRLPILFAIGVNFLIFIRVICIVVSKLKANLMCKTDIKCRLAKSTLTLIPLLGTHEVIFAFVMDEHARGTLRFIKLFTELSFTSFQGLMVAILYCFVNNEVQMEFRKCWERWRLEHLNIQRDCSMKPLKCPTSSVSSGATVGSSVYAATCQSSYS
The experiment in a line: competition with [125I]GLP-1 for binding to βTC3 cells (GLP-1 receptor), room temperature. As for the experimental part:
(§1) The specific activity of radiolabeled peptides was 10-50 μCi/mg (Hunter, et al., 1962, Nature, 194:495-498; Kieffer, et al., 1993, Can. J Physiol. Pharmacol., 71:917-922). Aliquots were lyophilized and reconstituted in assay buffer at 4° C. to a concentration of 3×10⁵ cpm/100 μl. […] The receptor binding buffer contained 138 mM NaCl, 5.6 mM KCl, 1.2 mM MgCl₂, 2.6 mM CaCl₂, 10 mM Hepes, 10 mM glucose, and 1% bovine serum albumin (BSA, fraction V, protease free, Sigma). […] Cells were washed once with PBS and then harvested with PBS-EDTA solution. βTC3 cells were then suspended in assay buffer at a density of 2×10⁶ cells/ml, and LGIPR2 cells were used at a density of 2.5×10⁵ cells/ml. […] Specific binding was defined as the difference between counts in the absence and presence of unlabeled peptide. […] Values are expressed as a percentage of maximum specific binding and are the mean ±SE, with assays performed in duplicate.

The target of assay [2] is T2, rat GIP receptor (rat, UniProt P43219 19-455).
T2 construct: whole, on cells; LGIPR2 cells also carry a cAMP-dependent VIP promoter-lacZ reporter; also called LGIPR2 cells; LGIRP2 cells
T2 sequence (looked up): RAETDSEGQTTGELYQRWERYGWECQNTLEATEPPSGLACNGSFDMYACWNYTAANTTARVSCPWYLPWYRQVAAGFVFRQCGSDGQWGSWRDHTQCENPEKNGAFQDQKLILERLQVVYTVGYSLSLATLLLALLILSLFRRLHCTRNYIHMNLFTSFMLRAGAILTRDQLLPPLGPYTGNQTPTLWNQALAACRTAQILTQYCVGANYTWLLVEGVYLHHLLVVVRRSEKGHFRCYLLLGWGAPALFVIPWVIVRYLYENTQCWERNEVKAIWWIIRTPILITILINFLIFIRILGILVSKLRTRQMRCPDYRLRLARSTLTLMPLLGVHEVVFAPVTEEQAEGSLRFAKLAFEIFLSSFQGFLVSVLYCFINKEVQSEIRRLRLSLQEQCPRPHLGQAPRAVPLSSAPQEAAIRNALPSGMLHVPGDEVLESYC
The assay is described as follows: competition with [125I]GIP (porcine) for binding to LGIPR2 cells carrying the rat GIP receptor, room temperature. Here is the method: as §1

Usually IC50 stands for the point on the concentration scale where inhibition reaches its midpoint. A low value points to greater potency in that assay. On to ISDYSIAMDKIRQQDFVNWLLAQK-NH2 (also called ANTGIP; ANTGIIP) [GIP (7-30)-NH2], for which the results for the IC50 in assay [1] and in assay [2] were 80 µM and 0.2 µM, respectively.
